Laboratory results: paper PMC3394726 (PLoS ONE, 2012)

Target: T1, human complement C1q (human, UniProt P02745;P02746;P02747)
T1 construct: source: purified from human plasma; endogenous, normal human serum (NHS); copies: + +
Assay: ELISA; SMSB3 or SMSB4 coated at 10 µg/ml; serial dilutions of normal human serum (0-100%) for 10, 20, 40 or 60 min at 37°C; bound complement factors detected with specific antibodies
Details: one partner purified

T1 sequence (P02745 23-245, chain 1 of 3): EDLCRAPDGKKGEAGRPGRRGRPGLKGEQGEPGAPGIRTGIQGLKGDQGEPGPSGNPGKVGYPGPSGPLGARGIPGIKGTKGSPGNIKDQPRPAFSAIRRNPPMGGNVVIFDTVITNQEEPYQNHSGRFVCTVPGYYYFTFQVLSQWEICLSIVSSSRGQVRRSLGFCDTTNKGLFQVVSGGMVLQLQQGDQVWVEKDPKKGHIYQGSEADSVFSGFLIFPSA
T1 sequence (P02746 28-253, chain 2 of 3): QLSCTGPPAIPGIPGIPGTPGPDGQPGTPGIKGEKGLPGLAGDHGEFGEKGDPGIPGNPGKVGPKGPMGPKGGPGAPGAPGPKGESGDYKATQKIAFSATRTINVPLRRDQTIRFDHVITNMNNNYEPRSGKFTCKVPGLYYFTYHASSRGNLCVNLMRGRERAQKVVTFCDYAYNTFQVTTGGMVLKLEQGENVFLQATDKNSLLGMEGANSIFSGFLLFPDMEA
T1 sequence (P02747 29-245, chain 3 of 3): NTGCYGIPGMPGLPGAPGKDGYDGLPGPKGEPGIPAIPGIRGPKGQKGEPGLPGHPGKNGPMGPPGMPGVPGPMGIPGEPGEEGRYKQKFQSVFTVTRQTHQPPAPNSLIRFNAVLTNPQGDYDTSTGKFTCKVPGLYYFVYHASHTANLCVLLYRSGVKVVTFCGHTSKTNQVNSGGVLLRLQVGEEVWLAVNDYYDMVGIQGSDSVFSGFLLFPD

B1: scabies mite serpin SMSB4, wild type (natural protein)
chain: KPQHHSQSHQQPVLASDPNEDPLKALNLLQQQKQFTEHFFQQNNEKLNLLGGQEIIKCFDVNFTSNVLNNIDHISKIMIDGSRHFGLRLFQILNLFEPKTSSPGLVYSPISVWSTLILTYLGSDGVTEQELSQKLKLNQLPKPLVALAYRSLKWWKDFNVLKLMQNHTDATQVCSANKLYINDHLLVKDCFRTIFGDEIEMKSFSSRPQESLSEINDWVRVQTQGHIPNLLGPESISSNTNIVMINAVYFKSFWAQQFDSSKTKKQRFYVSMNEELEADMMTMDSVSVMYGISEELRASAVEIPYSNPDYSFLIILPDITRSLDSMIRTLTWNKIQLLLQNMYDDEVKLMIPKFRSEQEFELAGPLFSLGIKKLFDPRYANLNSIFMNSNNSRVALDSVIHKSFISVDEEGTEAAAATAVIFARSGRPAFPTEFIADRPFLYIIRDVSSNQLLFIGTVRRPYASQAIVA
notes: also called SMB4; SMSB4/wt
B1: binds.
